This is an account of results in patent US20190300590A1 (PROTAGONIST THERAPEUTICS, published 2019).

Read-outs that look alike come from different tables or passages of the source. The star is where a group is joined. Palmitoyl = CCCCCCCCCCCCCCCC(=O)* Where only a bound is given, the exact number is not on record here.

The target in experiment [1] is T1, IL23R_huFC (human, UniProt Q5VWK5 24-353).
T1 sequence (looked up): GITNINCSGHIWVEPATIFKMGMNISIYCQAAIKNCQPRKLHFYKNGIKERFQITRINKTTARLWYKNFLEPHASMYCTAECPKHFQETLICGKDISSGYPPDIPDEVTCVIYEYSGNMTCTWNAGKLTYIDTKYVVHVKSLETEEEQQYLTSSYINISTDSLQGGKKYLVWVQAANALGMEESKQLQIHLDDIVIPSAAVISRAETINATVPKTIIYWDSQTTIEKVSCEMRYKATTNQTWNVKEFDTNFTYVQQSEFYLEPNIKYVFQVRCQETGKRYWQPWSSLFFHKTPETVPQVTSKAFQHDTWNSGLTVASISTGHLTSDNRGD
The experiment can be described thus: IL23-IL23R competitive ELISA.

The target in experiment [2] is T2, IL-23R on human cells (IL-23R-expressing DB cells; human NK cells) (human, UniProt Q5VWK5 24-629).
T2 sequence (looked up): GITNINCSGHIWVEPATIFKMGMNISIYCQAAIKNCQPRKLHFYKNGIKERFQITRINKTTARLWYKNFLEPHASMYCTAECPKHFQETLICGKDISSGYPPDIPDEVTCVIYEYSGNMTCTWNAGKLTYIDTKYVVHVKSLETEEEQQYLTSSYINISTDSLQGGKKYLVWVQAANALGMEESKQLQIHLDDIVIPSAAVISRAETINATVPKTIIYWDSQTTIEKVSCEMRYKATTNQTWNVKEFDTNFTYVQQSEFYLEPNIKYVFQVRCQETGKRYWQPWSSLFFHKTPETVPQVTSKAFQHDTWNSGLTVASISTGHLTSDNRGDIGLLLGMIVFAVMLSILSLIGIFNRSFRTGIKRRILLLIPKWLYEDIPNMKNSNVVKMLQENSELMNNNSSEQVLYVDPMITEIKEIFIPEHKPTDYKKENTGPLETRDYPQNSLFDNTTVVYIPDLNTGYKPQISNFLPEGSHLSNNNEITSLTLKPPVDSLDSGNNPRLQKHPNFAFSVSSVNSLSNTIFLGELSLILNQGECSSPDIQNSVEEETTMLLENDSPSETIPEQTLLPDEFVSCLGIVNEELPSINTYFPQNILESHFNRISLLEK
The experiment can be described thus: cell-based or functional assay.

In experiment [3] the target is T3, Rat IL-23R_huFC (rat, UniProt F1LX96 39-369).
T3 sequence: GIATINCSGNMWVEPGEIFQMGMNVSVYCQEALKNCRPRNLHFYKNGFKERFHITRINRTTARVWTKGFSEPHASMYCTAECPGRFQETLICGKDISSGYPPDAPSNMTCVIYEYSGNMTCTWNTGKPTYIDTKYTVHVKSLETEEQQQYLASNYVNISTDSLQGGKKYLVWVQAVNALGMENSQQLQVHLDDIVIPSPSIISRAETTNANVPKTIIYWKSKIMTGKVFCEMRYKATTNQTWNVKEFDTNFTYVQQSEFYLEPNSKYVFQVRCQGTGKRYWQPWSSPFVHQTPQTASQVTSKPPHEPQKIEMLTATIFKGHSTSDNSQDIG
The experiment can be described thus: rat IL-23R competitive binding ELISA.

A further experiment concerns the target T4, IL-23R on DB cells (human, UniProt Q5VWK5 24-629).
T4 sequence (looked up): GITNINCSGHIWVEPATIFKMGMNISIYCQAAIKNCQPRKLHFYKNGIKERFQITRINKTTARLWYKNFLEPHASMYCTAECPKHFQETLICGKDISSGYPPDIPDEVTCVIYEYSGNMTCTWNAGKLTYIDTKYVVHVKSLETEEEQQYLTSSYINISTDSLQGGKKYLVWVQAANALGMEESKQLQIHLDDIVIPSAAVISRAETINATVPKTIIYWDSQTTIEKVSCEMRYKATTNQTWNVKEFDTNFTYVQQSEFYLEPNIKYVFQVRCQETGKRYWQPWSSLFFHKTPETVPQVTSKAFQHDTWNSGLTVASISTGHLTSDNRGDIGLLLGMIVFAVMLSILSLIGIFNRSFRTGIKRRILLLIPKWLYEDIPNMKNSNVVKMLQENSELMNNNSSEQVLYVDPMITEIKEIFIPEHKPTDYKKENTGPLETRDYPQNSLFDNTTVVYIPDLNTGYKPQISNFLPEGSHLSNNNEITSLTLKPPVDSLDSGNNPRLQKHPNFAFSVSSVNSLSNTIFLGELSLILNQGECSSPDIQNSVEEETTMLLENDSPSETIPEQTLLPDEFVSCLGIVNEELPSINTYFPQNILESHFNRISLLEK
The experiment can be described thus: cell-based or functional assay.

Experiment [4] deals with T3, Rat IL-23R_huFC. As to the kind of experiment: rat IL-23R competitive binding ELISA. The source holds these as a separate data set. Background: ELISA stands for enzyme-linked immunosorbent assay.
For experiment [5], the target named is T5, IL23R_huFC (human, UniProt Q5VWK5 24-353).
T5 sequence (looked up): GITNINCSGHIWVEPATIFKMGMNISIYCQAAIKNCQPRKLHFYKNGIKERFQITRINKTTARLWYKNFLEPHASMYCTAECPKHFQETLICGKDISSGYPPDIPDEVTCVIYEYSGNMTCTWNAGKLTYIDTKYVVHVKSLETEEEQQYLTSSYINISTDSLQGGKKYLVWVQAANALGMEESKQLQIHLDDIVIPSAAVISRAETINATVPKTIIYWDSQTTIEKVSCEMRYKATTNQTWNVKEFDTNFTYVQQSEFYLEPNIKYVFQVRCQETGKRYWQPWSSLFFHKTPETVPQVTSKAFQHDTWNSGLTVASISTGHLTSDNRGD
The experiment can be described thus: IL23-IL23R competitive binding ELISA.

The target in experiment [6] is Rat IL-23R_huFC (rat). The experiment can be described thus: rat ELISA vs IL-23.
The target in experiment [7] is T6, IL23R_huFC (human, UniProt Q5VWK5 24-353).
T6 sequence (looked up): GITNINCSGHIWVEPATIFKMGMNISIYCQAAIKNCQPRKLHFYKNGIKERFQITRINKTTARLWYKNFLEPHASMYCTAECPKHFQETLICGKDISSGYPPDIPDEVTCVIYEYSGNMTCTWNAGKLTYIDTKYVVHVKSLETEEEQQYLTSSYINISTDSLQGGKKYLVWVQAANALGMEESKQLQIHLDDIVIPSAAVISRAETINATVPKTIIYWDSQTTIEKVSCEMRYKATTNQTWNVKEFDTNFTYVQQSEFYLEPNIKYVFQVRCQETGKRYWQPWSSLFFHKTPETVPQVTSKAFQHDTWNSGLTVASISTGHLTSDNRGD
As to the kind of experiment: human ELISA vs IL-23.

Take CADWVCYFXXFGXK (not fully specified; Ac-; [Phe(CONH2)]; [Orn]; [Dap]; [AEA]; [(D)Lys]; -NH2) [Ac-CADWVCY-[Phe(CONH2)]-[Orn]-[Dap]-FG-[AEA]-[(D)Lys]-NH2]: in the experiment with IL23R_huFC [1], the half-maximal inhibitory concentration (IC50) is around 6000 nM.
Molecule CADWVCYFXXFGXK (not fully specified; Ac-; [hPhe]; [Orn]; [Dap]; [AEA]; [(D)Lys]; -NH2) [Ac-CADWVCY-[hPhe]-[Orn]-[Dap]-FG-[AEA]-[(D)Lys]-NH2] had an IC50 with IL23R_huFC [1] of 30000 nM.
Take XNTWQXFXXKNN (as bracketed in name; Pen-Pen disulfide) [Ac-[Pen]-NTWQ-[Pen]-[Phe]4-(2-aminoethoxy)]-[2-Nal]-[Aib]-[Lys(Ac)]-NN-NH2]: in experiment [2], the “NK cell assay IC50 (IFNγ)” value is below 10 nM.

B1: [Ac-[Pen]-QTWQ-[Pen]-[Phe(4-CONH2)]-[2-Nal]-[α-MeLys]-[Lys(Ac)]-NN-NH2]2DIG (peptide)
peptide: XQTWQXFXKKNN
modifications: Ac; Pen-Pen disulfide; Phe(4-CONH2); 2-Nal; α-MeLys; Lys(Ac); NH2; DIG linker joins the two subunits
Take B1: the IC50 in the experiment with Rat IL-23R_huFC [3] was in the range of 10 to 25 nM.

B2: [Ac-[Pen]-QTWQ[Pen]-[Phe[4-(2-acetylaminoethoxy)]-[2-Nal]-[α-MeVal]-KNN-NH2]2DIG (peptide)
peptide: XQTWQXFXVKNN
modifications: not fully specified; Ac; Pen-Pen disulfide; Phe[4-(2-acetylaminoethoxy)]; 2-Nal; α-MeVal; NH2; DIG linker joins the two subunits
In the experiment with Rat IL-23R_huFC [3], B2 yielded an IC50 of 10 to 25 nM.

B3: [Ac-[Pen]-QTWQ-[Pen]-[Phe(4-OMe)]-[2-Nal]-[α-MeLys]-[Lys(Ac)]-NN-NH2]2DIG (peptide)
peptide: XQTWQXFXKKNN
modifications: Ac; Pen-Pen disulfide; Phe(4-OMe); 2-Nal; α-MeLys; Lys(Ac); NH2; DIG linker joins the two subunits
For B3, in the experiment with Rat IL-23R_huFC [3], the IC50 is 10 to 25 nM.

B4: [Ac-[Pen]-QTWQ[Pen]-[Phe[4-(2-acetylaminoethoxy)]-[2-Nal]-K-[Lys(Ac)]-NN-NH2]2DIG (peptide)
peptide: XQTWQXFXKKNN
modifications: Ac; Pen-Pen disulfide; Phe[4-(2-acetylaminoethoxy)]; 2-Nal; Lys(Ac); NH2; DIG linker joins the two subunits
Turning to B4, the IC50 with Rat IL-23R_huFC [3] was 25 to 100 nM.
Turning to CQTWQCYWLENG (not fully specified; Ac; α-MeLeu at 9; NH2) [Ac-CQTWQCYW-[α-MeLeu]-ENG-NH2], the “pStat3 HTRF IC50” value with IL-23R on DB cells worked out at 5 nM. This molecule displayed an IC50 with Rat IL-23R_huFC [4] of 27 nM.
As to Ac-CQTWQCYWK(Palmitoyl)ENG-NH2 (cysteine pairing not given here) [Ac-CQTWQCYW-[K(Palm)]-ENG-NH2], in the experiment with IL23R_huFC [5], the IC50 was determined as 4880 nM.
On to XNTWQXFXXKNN (as bracketed in name; Pen-Pen disulfide; DIG linker) [[Ac-[Pen]-NTWQ-[Pen]-[Phe(4-CONH2)]-[2-Nal]-[Aib]-KNN-NH2]2 DIG], for which the “NK cell assay IC50 (IFNγ)” value in experiment [2] was below 10 nM.
For CQTWQCXWXENG (not fully specified; Ac; X7 = Cha; X9 = hLeu; NH2) [Ac-CQTWQC-[Cha]-W-[hLeu]-ENG-NH2], the IC50 with IL23R_huFC [5] was around 6000 nM.
For CQTWQCYWXENG (not fully specified; Ac; Ogl; NH2) [Ac-CQTWQCYW-[Ogl]-ENG-NH2], the “pStat3 HTRF IC50” value with IL-23R on DB cells was 76 nM.
Consider XQTWQXFXKENG (as bracketed in name; thioether cyclo) [Ac-Cyclo-[[Abu]-QTWQ-[Pen]]-[Phe(4-OMe)]-[2-Nal]-[α-MeLys]-ENG-NH2], for which the half-inhibitory concentration (IC50) with Rat IL-23R_huFC [6] and with IL23R_huFC [7] was 100 to 1000 nM each time.

A word on the IC50: it is the concentration that gives 50% inhibition. Lower therefore signals greater potency in that assay.
